For one protein, Km results are on record in patent US5041542A, “Substituted pyrimido[5,4-d]pyrimidine nucleosides” (Nucleic Acid Research Institute, priority 1988, dated 1991).

Substrate in this data set: Nc1ncnc2c1ncn2[C@@H]1O[C@H](CO)[C@@H](O)[C@H]1O
Kind of data set: Adenosine kinase inhibition (filter binding assay). The data set is classed as biochemical, human. Conditions: other: adenosine as substrate; 37.0 °C.

B1: WI-L2 adenosine kinase (Homo sapiens) (protein)
chain: MAAAEEEPKPKKLKVEAPQALRENILFGMGNPLLDISAVVDKDFLDKYSLKPNDQILAEDKHKELFDELVKKFKVEYHAGGSTQNSIKVAQWMIQQPHKAATFFGCIGIDKFGEILKRKAAEAHVDAHYYEQNEQPTGTCAACITGDNRSLIANLAAANCYKKEKHLDLEKNWMLVEKARVCYIAGFFLTVSPESVLKVAHHASENNRIFTLNLSAPFISQFYKESLMKVMPYVDILFGNETEAATFAREQGFETKDIKEIAKKTQALPKMNSKRQRIVIFTQGRDDTIMATESEVTAFAVLDQDQKEIIDTNGAGDAFVGGFLSQLVSDKPLTECIRAGHYAASIIIRRTGCTFPEKPDFH
notes: added to the cell-free WI-L2 lysate to give 5 μM final assay concentration; endogenous in cells; host or cells: WI-L2 B lymphoblast cells (cell-free lysate)
B1: the Km (commonly the substrate concentration at which the rate is half of its maximum) worked out at 0.9 µM.
